Source: paper PMC9352680, “A comprehensive thermodynamic model for RNA binding by the Saccharomyces cerevisiae Pumilio protein PUF4”
Substitutions are numbered along the chain they refer to. Names and notes keep the numbering of the source.

B1: Ic_S4_P5E.1_K5.1_C5.1_H5.1_A5.1_[T5G]_[T6C]_F5.1_[T8G]_[A10C]_T5.1 (ssRNA)
RNA: UUUGACAACUGAUCGUUCUUUCUUGUAGCAGUCUUCUUUCUCGAUCAGUUGUCUUU
B2: Ic_S4_P5E.1_K5.1_C5.1_H5.1_A5.1_[T5C]_[T6A]_[A7G]_F5.1_[T9G]_[A10C]_T5.1 (ssRNA)
RNA: B1 RNA with G28C, C29A, A30G, G31U, U32G
B3: Ic_S4_P5E.1_K5.1_C5.1_H5.1_A5.1_[T5G]_[T6C]_[A7T]_F5.1_[T8C]_[T9G]_[A10T]_T5.1 (ssRNA)
RNA: B1 RNA with A30U, G31C, U32G, C33U
B4: Ic_S4_P5E.1_K5.1_C5.1_H5.1_A5.1_[T5C]_[T6A]_F5.1_[T9G]_[A10G]_T5.1 (ssRNA)
RNA: B1 RNA with G28C, C29A, G31U, U32G, C33G
B5: Ic_S4_P5E.1_K5.1_C5.1_H5.1_A5.1_[T5C]_[T6A]_[A7G]_F5.1_[A10G]_T5.1 (ssRNA)
RNA: B1 RNA with G28C, C29A, A30G, G31U, C33G
B6: Ic_S4_P5E.1_K5.1_C5.1_H5.1_A5.1_[T5A]_[T6C]_F5.1_[T8G]_[T9C]_[A10T]_T5.1 (ssRNA)
RNA: B1 RNA with G28A, U32C, C33U
B7: Ic_S4_P5E.1_K5.1_C5.1_H5.1_A5.1_[T5C]_[T6G]_[A7C]_F5.1_[T8C]_[T9C]_T5.1 (ssRNA)
RNA: B1 RNA with G28C, C29G, A30C, G31C, U32C, C33A
B8: Ic_S4_P5E.1_K5.1_C5.1_H5.1_A5.1_[T5A]_[A7G]_F5.1_[T8G]_[A10C]_T5.1 (ssRNA)
RNA: B1 RNA with G28A, C29U, A30G
B9: Ic_S4_P5E.1_K5.1_C5.1_H5.1_A5.1_[T6A]_[A7T]_F5.1_[T8C]_[T9G]_[A10G]_T5.1 (ssRNA)
RNA: B1 RNA with G28U, C29A, A30U, G31C, U32G, C33G
B10: Ic_S4_P5E.1_K5.1_C5.1_H5.1_A5.1_[T5A]_[T6C]_[A7T]_F5.1_[T8A]_[A10C]_T5.1 (ssRNA)
RNA: B1 RNA with G28A, A30U, G31A
B11: Ic_S4_P5E.1_K5.1_C5.1_H5.1_A5.1_[T5C]_[A7C]_F5.1_[A10T]_T5.1 (ssRNA)
RNA: B1 RNA with G28C, C29U, A30C, G31U, C33U
B12: Ic_S4_P5E.1_K5.1_C5.1_H5.1_A5.1_[T6A]_[A7C]_F5.1_[T8C]_[T9G]_[A10G]_T5.1 (ssRNA)
RNA: B1 RNA with G28U, C29A, A30C, G31C, U32G, C33G

Molecular target: T1, PUF4 RNA-binding domain (Saccharomyces cerevisiae, UniProt P25339 537-888)
T1 sequence: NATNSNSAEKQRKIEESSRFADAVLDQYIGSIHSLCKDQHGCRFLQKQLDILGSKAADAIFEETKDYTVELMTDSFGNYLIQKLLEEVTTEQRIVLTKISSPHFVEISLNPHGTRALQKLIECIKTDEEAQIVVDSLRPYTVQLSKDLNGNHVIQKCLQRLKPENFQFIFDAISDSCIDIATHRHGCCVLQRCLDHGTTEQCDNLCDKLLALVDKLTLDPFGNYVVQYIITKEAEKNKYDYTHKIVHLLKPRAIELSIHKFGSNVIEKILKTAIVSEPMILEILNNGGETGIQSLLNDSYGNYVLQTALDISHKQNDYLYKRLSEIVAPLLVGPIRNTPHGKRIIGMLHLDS
Assay: Mg; RNA-MaP; 20 mM Na-HEPES pH 7.4, 30 mM KOAc, 0.75 mM MgCl2, 0.1% Tween-20, 5% glycerol, 0.1 mg/mL BSA, 2 mM DTT; 25 C; 0.0125-409.6 nM protein
Conditions: tags: N-His6-TEV cleaved; C-SNAP kept, Cy3B-labelled; label: tethered on chip by stalled RNA polymerase

Binder | Kd [µM]
UCUCUUGCACACUAUAUAUCUCUU (ssRNA) [Id_i_S1_P3E.4_K3.3_C3.2_[C-2G]_[T-1C]_H3.3_A3.1_F3.1_T3.2] | 0.116
UCUCUUUGUAAAUUAUCUCUU (ssRNA) [Ia_S1_P4E.1_K4.1_C4.1_H4.1_A4.1_[T5A]_F4.1_T4.1] | 0.00208
UCUCUUUGUAUAAUCUCUCUU (ssRNA) [Ic_S1_P4E.1_K4.1_C4.1_H4.1_A4.1_[T7A]_F4.1_[A9C]_T4.1] | 0.0158
UCUCUUUGUAUACUCUCUCUU (ssRNA) [Ic_S1_P4E.1_K4.1_C4.1_H4.1_A4.1_[T7C]_F4.1_[A9C]_T4.1] | 0.00932
UCUCUUUGUAUACUGUCUCUU (ssRNA) [Ib_S1_P4E.1_K4.1_C4.1_H4.1_A4.1_[T7C]_F4.1_[A9G]_T4.1] | 0.00539
UCUCUUUGUAUAUAUAUAUCUCUU (ssRNA) [Id_ii_S1_P3E.3_K3.2_C3.2_[C-2T]_[T-1G]_H3.2_A3.1_F3.1_T3.2] | 0.00655
UCUCUUUCUAUAUAUAUAUCUCUU (ssRNA) [Id_ii_S1_P3E.3_K3.2_C3.2_[C-2T]_[T-1C]_H3.2_A3.1_F3.1_T3.2] | 0.368
UCUCUUAAUAUAUAUAUAUCUCUU (ssRNA) [Id_i_S1_P3E.3_K3.2_C3.2_[C-2A]_[T-1A]_H3.2_A3.1_F3.1_T3.2] | 0.675
UCUCUUACUAUAUAUAUAUCUCUU (ssRNA) [Id_i_S1_P3E.3_K3.2_C3.2_[C-2A]_[T-1C]_H3.2_A3.1_F3.1_T3.2] | 0.458
UCUCUUUCUGUAUAUAUAUCUCUU (ssRNA) [Id_ii_S1_P3E.2_K3.1_C3.2_[C-2T]_[T-1C]_H3.1_A3.1_F3.1_T3.2] | 0.00333
UCUCUUUGUAUAGUCUCUCUU (ssRNA) [Ic_S1_P4E.1_K4.1_C4.1_H4.1_A4.1_[T7G]_F4.1_[A9C]_T4.1] | 0.0234
UCUCUUUGUAUAAUGUCUCUU (ssRNA) [Ic_S1_P4E.1_K4.1_C4.1_H4.1_A4.1_[T7A]_F4.1_[A9G]_T4.1] | 0.00603
UCUCUUGCUAUAUAUAUAUCUCUU (ssRNA) [Id_i_S1_P3E.3_K3.2_C3.2_[C-2G]_[T-1C]_H3.2_A3.1_F3.1_T3.2] | 0.569
UCUCUUUGUGUAUAUAUAUCUCUU (ssRNA) [Id_ii_S1_P3E.2_K3.1_C3.2_[C-2T]_[T-1G]_H3.1_A3.1_F3.1_T3.2] | 0.00624
UCUCUUAGUGUAUAUAUAUCUCUU (ssRNA) [Id_i_S1_P3E.2_K3.1_C3.2_[C-2A]_[T-1G]_H3.1_A3.1_F3.1_T3.2] | 0.0146
UCUCUUGCUGUAUAUAUAUCUCUU (ssRNA) [Id_ii_S1_P3E.2_K3.1_C3.2_[C-2G]_[T-1C]_H3.1_A3.1_F3.1_T3.2] | 0.00765
UCUCUUAAUGUAUAUAUAUCUCUU (ssRNA) [Id_i_S1_P3E.2_K3.1_C3.2_[C-2A]_[T-1A]_H3.1_A3.1_F3.1_T3.2] | 0.00722
UCUCUUUGUAUAGUUUCUCUU (ssRNA) [Ic_S1_P4E.1_K4.1_C4.1_H4.1_A4.1_[T7G]_F4.1_[A9T]_T4.1] | 0.00953
B1 | 0.976
B2 | 0.0106
B3 | 0.476
B4 | 0.0169
B5 | 0.0274
B6 | 0.661
B7 | 0.463
B8 | 1.35
B9 | 0.0728
B10 | 0.156
B11 | 0.0109
B12 | 0.144
